How the values were obtained:
Type in all cases: biochemical
[1] = Carboxylate reductase activity assay (pimelate to pimelate semialdehyde); details: purified enzyme enhanced by sfp gene product, 2 mM pimelate, 1 mM ATP, 1 mM NADPH, pH 7.5, room temperature, 20 min, against empty vector control
Protocol: A sequence encoding a HIS-tag was added to the genes from Segniliparus rugosus and Segniliparus rotundus that encode the carboxylate reductases of SEQ ID NOs: 4 and 7, respectively (see FIGS. 7C and 7F), such that N-terminal HIS tagged carboxylate reductases could be produced. Each of the modified genes was cloned into a pET Duet expression vector along with a sfp gene encoding a HIS-tagged phosphopantetheine transferase from Bacillus subtilis, both under the T7 promoter. Each expression vector was transformed into a BL21[DE3] E. coli host and the resulting recombinant E. coli strains were cultivated at 37° C. in a 250 mL shake flask culture containing 50 mL LB media and antibiotic selection pressure, with shaking at 230 rpm. Each culture was induced overnight at 37° C. using an auto-induction media.
The pellet from each induced shake flask culture was harvested via centrifugation. Each pellet was resuspended and lysed via sonication, and the cell debris was separated from the supernatant via centrifugation. […]
Enzyme activity assays (i.e., from pimelate to pimelate semialdehyde) were performed in triplicate in a buffer composed of a final concentration of 50 mM HEPES buffer (pH=7.5), 2 mM pimelate, 10 mM MgCl2, 1 mM ATP and 1 mM NADPH. […] The consumption of NADPH was monitored by absorbance at 340 nm.

[2] = Carboxylate reductase activity assay (N7-acetyl-7-aminoheptanoate to N7-acetyl-7-aminoheptanal); details: purified enzyme enhanced by sfp gene product, 2 mM N7-acetyl-7-aminoheptanoate, 1 mM ATP, 1 mM NADPH, pH 7.5, room temperature, 20 min, against empty vector control
Protocol: The activity of each of the N-terminal His-tagged carboxylate reductases of SEQ ID NOs: 3, 6, and 7 (see Example 4, and FIGS. 7B, 7E, and 7F) for converting N7-acetyl-7-aminoheptanoate to N7-acetyl-7-aminoheptanal was assayed in triplicate in a buffer composed of a final concentration of 50 mM HEPES buffer (pH=7.5), 2 mM N7-acetyl-7-aminoheptanoate, 10 mM MgCl2, 1 mM ATP, and 1 mM NADPH. The assays were initiated by adding purified carboxylate reductase and phosphopantetheine transferase or the empty vector control to the assay buffer containing the N7-acetyl-7-aminoheptanoate then incubated at room temperature for 20 min. The consumption of NADPH was monitored by absorbance at 340 nm.

[3] = Carboxylate reductase activity assay (pimelate semialdehyde to heptanedial); details: purified enzyme enhanced by sfp gene product, 2 mM pimelate semialdehyde, 1 mM ATP, 1 mM NADPH, pH 7.5, room temperature, 20 min, against empty vector control
Protocol: The N-terminal His-tagged carboxylate reductase of SEQ ID NO 7 (see Example 4 and FIG. 7F) was assayed using pimelate semialdehyde as substrate. The enzyme activity assay was performed in triplicate in a buffer composed of a final concentration of 50 mM HEPES buffer (pH=7.5), 2 mM pimelate semialdehyde, 10 mM MgCl2, 1 mM ATP and 1 mM NADPH. The enzyme activity assay reaction was initiated by adding purified carboxylate reductase and phosphopantetheine transferase or the empty vector control to the assay buffer containing the pimelate semialdehyde and then incubated at room temperature for 20 min. The consumption of NADPH was monitored by absorbance at 340 nm.

[4] = Thioesterase enzyme activity assay using pimeloyl-CoA as substrate, forming pimelate; details: 667 μM pimeloyl-CoA, 0.8 μM tesB gene product, pH 7.4, 37° C., 20 min, compared to empty vector control
Protocol: A sequence encoding an N-terminal His tag was added to the tesB gene from Escherichia coli that encodes a thioesterase (SEQ ID NO 1, see FIG. 7A), such that an N-terminal HIS tagged thioesterase could be produced. The modified tesB gene was cloned into a pET15b expression vector under control of the T7 promoter. The expression vector was transformed into a BL21[DE3] E. coli host. The resulting recombinant E. coli strain was cultivated at 37° C. in a 500 mL shake flask culture containing 50 mL Luria Broth (LB) media and antibiotic selection pressure, with shaking at 230 rpm. The culture was induced overnight at 17° C. using 0.5 mM IPTG.
The pellet from the induced shake flask culture was harvested via centrifugation. The pellet was resuspended and lysed in Y-per™ solution (ThermoScientific, Rockford, Ill.). The cell debris was separated from the supernatant via centrifugation. […]
The enzyme activity assay was performed in triplicate in a buffer composed of 50 mM phosphate buffer (pH=7.4), 0.1 mM Ellman's reagent, and 667 μM of pimeloyl-CoA (as substrate). […] The release of Coenzyme A was monitored by absorbance at 412 nm. The absorbance associated with the substrate only control, which contained boiled enzyme, was subtracted from the active enzyme assay absorbance and compared to the empty vector control.

Molecule | acceptance of pimelate as substrate (consumption of NADPH, absorbance at 340 nm) [1] | acceptance of N7-acetyl-7-aminoheptanoate as substrate (consumption of NADPH, absorbance at 340 nm) [2] | acceptance of pimelate semialdehyde as substrate, forming heptanedial (consumption of NADPH, absorbance at 340 nm) [3] | acceptance of pimeloyl-CoA as substrate (release of Coenzyme A, absorbance at 412 nm) [4]
SEQ ID NO 7: Segniliparus rotundus carboxylate reductase, Genbank Accession No. ADG98140.1 (protein, listed as Segniliparus rotundus) MTQSHTQGPQASAAHSRLARRAAELLATDPQAAATLPDPEVVRQATRPGLRLAERVDAILSGYADRPALGQRSFQTVKDPITGRSSVELLPTFDTITYRELRERATAIASDLAHHPQAPAKPGDFLASIGFISVDYVAIDIAGVFAGLTAVPLQTGATLATLTAITAETAPTLFAASIEHLPTAVDAVLATPSVRRLLVFDYRAGSDEDREAVEAAKRKIADAGSSVLVDVLDEVIARGKSAPKAPLPPATDAGDDSLSLLIYTSGSTGTPKGAMYPERNVAHFWGGVWAAAFDEDAAPPVPAINITFLPLSHVASRLSLMPTLARGGLMHFVAKSDLSTLFEDLKLARPTNLFLVPRVVEMLYQHYQSELDRRGVQDGTREAEAVKDDLRTGLLGGRILTAGFGSAPLSAELAGFIESLLQIHLVDGYGSTEAGPVWRDGYLVKPPVTDYKLIDVPELGYFSTDSPHPRGELAIKTQTILPGYYKRPETTAEVFDEDGFYLTGDVVAQIGPEQFAYVDRRKNVLKLSQGEFVTLAKLEAAYSSSPLVRQLFVYGSSERSYLLAVIVPTPDALKKFGVGEAAKAALGESLQKIARDEGLQSYEVPRDFIIETDPFTVENGLLSDARKSLRPKLKEHYGERLEAMYKELADGQANELRDIRRGVQQRPTLETVRRAAAAMLGASAAEIKPDAHFTDLGGDSLSALTFSNFLHDLFEVDVPVGVIVSAANTLGSVAEHIDAQLAGGRARPTFATVHGKGSTTIKASDLTLDKFIDEQTLEAAKHLPKPADPPRTVLLTGANGWLGRFLALEWLERLAPAGGKLITIVRGKDAAQAKARLDAAYESGDPKLAGHYQDLAATTLEVLAGDFSEPRLGLDEATWNRLADEVDFISHPGALVNHVLPYNQLFGPNVAGVAEIIKLAITTRIKPVTYLSTVAVAAGVEPSALDEDGDIRTVSAERSVDEGYANGYGNSKWGGEVLLREAHDRTGLPVRVFRSDMILAHQKYTGQVNATDQFTRLVQSLLATGLAPKSFYELDAQGNRQRAHYDGIPVDFTAESITTLGGDGLEGYRSYNVFNPHRDGVGLDEFVDWLIEAGHPITRIDDYDQWLSRFETSLRGLPESKRQASVLPLLHAFARPGPAVDGSPFRNTVFRTDVQKAKIGAEHDIPHLGKALVLKYADDIKQLGLL | accepted pimelate as substrate | accepted N7-acetyl-7-aminoheptanoate as substrate | accepted pimelate semialdehyde as substrate | 
SEQ ID NO 4: Segniliparus rugosus carboxylate reductase, Genbank Accession No. EFV11917.1 (protein, listed as Segniliparus rugosus) MGDGEERAKRFFQRIGELSATDPQFAAAAPDPAVVEAVSDPSLSFTRYLDTLMRGYAERPALAHRVGAGYETISYGELWARVGAIAAAWQADGLAPGDFVATVGFTSPDYVAVDLAAARSGLVSVPLQAGASLAQLVGILEETEPKVLAASASSLEGAVACALAAPSVQRLVVFDLRGPDASESAADERRGALADAEEQLARAGRAVVVETLADLAARGEALPEAPLFEPAEGEDPLALLIYTSGSTGAPKGAMYSQRLVSQLWGRTPVVPGMPNISLHYMPLSHSYGRAVLAGALSAGGTAHFTANSDLSTLFEDIALARPTFLALVPRVCEMLFQESQRGQDVAELRERVLGGRLLVAVCGSAPLSPEMRAFMEEVLGFPLLDGYGSTEALGVMRNGIIQRPPVIDYKLVDVPELGYRTTDKPYPRGELCIRSTSLISGYYKRPEITAEVFDAQGYYKTGDVMAEIAPDHLVYVDRSKNVLKLSQGEFVAVAKLEAAYGTSPYVKQIFVYGNSERSFLLAVVVPNAEVLGARDQEEAKPLIAASLQKIAKEAGLQSYEVPRDFLIETEPFTTQNGLLSEVGKLLRPKLKARYGEALEARYDEIAHGQADELRALRDGAGQRPVVETVVRAAVAISGSEGAEVGPEANFADLGGDSLSALSLANLLHDVFEVEVPVRIIIGPTASLAGIAKHIEAERAGASAPTAASVHGAGATRIRASELTLEKFLPEDLLAAAKGLPAADQVRTVLLTGANGWLGRFLALEQLERLARSGQDGGKLICLVRGKDAAAARRRIEETLGTDPALAARFAELAEGRLEVVPGDVGEPKFGLDDAAWDRLAEEVDVIVHPAALVNHVLPYHQLFGPNVVGTAEIIRLAITAKRKPVTYLSTVAVAAGVEPSSFEEDGDIRAVVPERPLGDGYANGYGNSKWAGEVLLREAHELVGLPVAVFRSDMILAHTRYTGQLNVPDQFTRLVLSLLATGIAPKSFYQQGAAGERQRAHYDGIPVDFTAEAITTLGAEPSWFDGGAGFRSFDVFNPHHDGVGLDEFVDWLIEAGHPISRIDDHKEWFARFETAVRGLPEAQRQHSLLPLLRAYSFPHPPVDGSVYPTGKFQGAVKAAQVGSDHDVPHLGKALIVKYADDLKALGLL | accepted pimelate as substrate |  |  | 
tesB: Escherichia coli thioesterase encoded by tesB, GenBank Accession No. AAA24665.1 (protein, listed as Escherichia coli) MSQALKNLLTLLNLEKIEEGLFRGQSEDLGLRQVFGGQVVGQALYAAKETVPEERLVHSFHSYFLRPGDSKKPIIYDVETLRDGNSFSARRVAAIQNGKPIFYMTASFQAPEAGFEHQKTMPSAPAPDGLPSETQIAQSLAHLLPPVLKDKFICDRPLEVRPVEFHNPLKGHVAEPHRQVWIRANGSVPDDLRVHQYLLGYASDLNFLPVALQPHGIGFLEPGIQIATIDHSMWFHRPFNLNEWLLYSVESTSASSARGFVRGEFYTQDGVLVASTVQEGVMRNHN |  |  |  | acceped pimeloyl-CoA as substrate
